Experimental data: patent US20180274043A1

Molecular target: human HER3 receptor (human) (UniProt P21860)
Assay: cell-based or functional assay

fold induction of 6×JNK-Luc reporter activity at 100 ng/ml NRG1: 4.2 fold
fold induction of JNK-Luc (3 copies of AP-1) reporter activity at 100 ng/ml NRG1: 2.6 fold
Substance: neuregulin-1 (from UniProt Q02297 177-241) (ligand)
